Literature values in article PMC8391295.

Biological target: CD4 (Homo sapiens) (UniProt P01730)

Chain of Prolactin-inducible protein (P12273 29-146): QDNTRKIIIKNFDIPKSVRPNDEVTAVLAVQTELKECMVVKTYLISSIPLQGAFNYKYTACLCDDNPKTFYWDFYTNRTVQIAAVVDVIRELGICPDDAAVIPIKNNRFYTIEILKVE

Prolactin-inducible protein (from UniProt P12273)
Kd: 6 nM
